The binders below were run against T1, TmCsp (cold shock protein) (Thermotoga maritima, UniProt O54310 1-66) (assay: Trp fluorescence quenching; 343 K; EMSA: 50 mM NaH2PO4 pH 6.5, 20 mM NaCl, 0.2 mM EDTA, room temperature 1 h, 20% gel in 1xTBE at 4 C; NMR: 50 mM sodium phosphate pH 6.5, 20 mM NaCl, 0.2 mM EDTA). Conditions: protein: recombinant; tags: none stated; chain copies: 2; label: none (5'-fluorescein in EMSA); single strand.
T1 sequence (O54310 whole entry): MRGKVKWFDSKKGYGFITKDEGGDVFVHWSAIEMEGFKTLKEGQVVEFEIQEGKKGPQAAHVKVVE
With CCCCCCC (ssDNA) [(dC)7] the Kd was 11000 ± 100 nM.
With TTTTTTT (ssDNA) [(dT)7] the Kd was 1600 ± 40 nM.
In the case of GGGGGGG (ssDNA) [(dG)7], the Kd is reported as 5600 ± 100 nM.
UUUUUUU (ssRNA) [(rU)7] was tested, and the Kd was 17400 ± 100 nM.

These binders were tested against T1, TmCsp (cold shock protein) (assay: Trp fluorescence quenching; 323 K; EMSA: 50 mM NaH2PO4 pH 6.5, 20 mM NaCl, 0.2 mM EDTA, room temperature 1 h, 20% gel in 1xTBE at 4 C; NMR: 50 mM sodium phosphate pH 6.5, 20 mM NaCl, 0.2 mM EDTA). Conditions: protein: recombinant; tags: none stated; chain copies: 2; label: none (5'-fluorescein in EMSA); single strand.
TTTTTTT (ssDNA) [(dT)7] gave a Kd of 440 ± 20 nM.
UUUUUUU (ssRNA) [(rU)7] was tested, and the Kd was 1520 ± 10 nM.

These binders were tested against T1, TmCsp (cold shock protein) (assay: Trp fluorescence quenching; 303 K; EMSA: 50 mM NaH2PO4 pH 6.5, 20 mM NaCl, 0.2 mM EDTA, room temperature 1 h, 20% gel in 1xTBE at 4 C; NMR: 50 mM sodium phosphate pH 6.5, 20 mM NaCl, 0.2 mM EDTA). Conditions: protein: recombinant; tags: none stated; chain copies: 2; label: none (5'-fluorescein in EMSA); single strand.
In the case of CCCCCCC (ssDNA) [(dC)7], the Kd is reported as 2800 ± 100 nM.
In the case of TTTTTTT (ssDNA) [(dT)7], the Kd is reported as 4 ± 0.2 nM.
In the case of AAAAAAA (ssDNA) [(dA)7], the Kd is reported as 5000 ± 200 nM.
GGGGGGG (ssDNA) [(dG)7] gave a Kd of 3400 ± 100 nM.
UUUUUUU (ssRNA) [(rU)7] was tested, and the Kd was 10.8 ± 0.8 nM.
